Experimental data as given in PMC2847587 (Molecular cell, 2010).

B1: FANCA (natural protein, human (endogenous in HeLa), UniProt O15360 1-1455, looked up)
chain: MSDSWVPNSASGQDPGGRRRAWAELLAGRVKREKYNPERAQKLKESAVRLLRSHQDLNALLLEVEGPLCKKLSLSKVIDCDSSEAYANHSSSFIGSALQDQASRLGVPVGILSAGMVASSVGQICTAPAETSHPVLLTVEQRKKLSSLLEFAQYLLAHSMFSRLSFCQELWKIQSSLLLEAVWHLHVQGIVSLQELLESHPDMHAVGSWLFRNLCCLCEQMEASCQHADVARAMLSDFVQMFVLRGFQKNSDLRRTVEPEKMPQVTVDVLQRMLIFALDALAAGVQEESSTHKIVRCWFGVFSGHTLGSVISTDPLKRFFSHTLTQILTHSPVLKASDAVQMQREWSFARTHPLLTSLYRRLFVMLSAEELVGHLQEVLETQEVHWQRVLSFVSALVVCFPEAQQLLEDWVARLMAQAFESCQLDSMVTAFLVVRQAALEGPSAFLSYADWFKASFGSTRGYHGCSKKALVFLFTFLSELVPFESPRYLQVHILHPPLVPGKYRSLLTDYISLAKTRLADLKVSIENMGLYEDLSSAGDITEPHSQALQDVEKAIMVFEHTGNIPVTVMEASIFRRPYYVSHFLPALLTPRVLPKVPDSRVAFIESLKRADKIPPSLYSTYCQACSAAEEKPEDAALGVRAEPNSAEEPLGQLTAALGELRASMTDPSQRDVISAQVAVISERLRAVLGHNEDDSSVEISKIQLSINTPRLEPREHMAVDLLLTSFCQNLMAASSVAPPERQGPWAALFVRTMCGRVLPAVLTRLCQLLRHQGPSLSAPHVLGLAALAVHLGESRSALPEVDVGPPAPGAGLPVPALFDSLLTCRTRDSLFFCLKFCTAAISYSLCKFSSQSRDTLCSCLSPGLIKKFQFLMFRLFSEARQPLSEEDVASLSWRPLHLPSADWQRAALSLWTHRTFREVLKEEDVHLTYQDWLHLELEIQPEADALSDTERQDFHQWAIHEHFLPESSASGGCDGDLQAACTILVNALMDFHQSSRSYDHSENSDLVFGGRTGNEDIISRLQEMVADLELQQDLIVPLGHTPSQEHFLFEIFRRRLQALTSGWSVAASLQRQRELLMYKRILLRLPSSVLCGSSFQAEQPITARCEQFFHLVNSEMRNFCSHGGALTQDITAHFFRGLLNACLRSRDPSLMVDFILAKCQTKCPLILTSALVWWPSLEPVLLCRWRRHCQSPLPRELQKLQEGRQFASDFLSPEAASPAPNPDWLSAAALHFAIQQVREENIRKQLKKLDCEREELLVFLFFFSLMGLLSSHLTSNSTTDLPKAFHVCAAILECLEKRKISWLALFQLTESDLRLGRLLLRVAPDQHTRLLPFAFYSLLSYFHEDAAIREEAFLHVAVDMYLKLVQLFVAGDTSTVSPPAGRSLELKGQGNPVELITKARLFLLQLIPRCPKKSFSHVAELLADRGDCDPEVSAALQSRQQAAPDADLSQEPHLF
B2: FAAP24 (natural protein, human (endogenous in HeLa), UniProt Q9BTP7 1-215, looked up)
chain: MEKNPPDDTGPVHVPLGHIVANEKWRGSQLAQEMQGKIKLIFEDGLTPDFYLSNRCCILYVTEADLVAGNGYRKRLVRVRNSNNLKGIVVVEKTRMSEQYFPALQKFTVLDLGMVLLPVASQMEASCLVIQLVQEQTKEPSKNPLLGKKRALLLSEPSLLRTVQQIPGVGKVKAPLLLQKFPSIQQLSNASIGELEQVVGQAVAQQIHAFFTQPR

What was measured:
Assay in all cases: immunodepletion
[1] = target: MHF1 (FANCM-associated Histone Fold protein 1) (human (endogenous in HeLa), UniProt Q8N2Z9-1 1-138)
MHF1 (FANCM-associated Histone Fold protein 1), sequence (Q8N2Z9 whole entry): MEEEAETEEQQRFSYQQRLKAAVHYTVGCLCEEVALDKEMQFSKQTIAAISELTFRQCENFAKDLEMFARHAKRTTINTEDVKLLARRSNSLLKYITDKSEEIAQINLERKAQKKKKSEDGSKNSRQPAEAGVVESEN

[2] = target: MHF2 (FANCM-associated Histone Fold protein 2) (human (endogenous in HeLa), UniProt A8MT69 1-81)
MHF2 (FANCM-associated Histone Fold protein 2), sequence (A8MT69 whole entry): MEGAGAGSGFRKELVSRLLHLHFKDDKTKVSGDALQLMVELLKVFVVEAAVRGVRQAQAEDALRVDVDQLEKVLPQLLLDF

FAAP24 = target: B2
FANCA = target: B1

percent co-depleted [1]	percent co-depleted [2]	percent co-depleted (FAAP24)	percent co-depleted (FANCA)	Binder
< 25%	< 25%	< 25%	–	B1
–	–	–	< 30%	B2
